# Experimental data published in article PMC9309400.
# Tests used:
# [1] = target: Family 2B encapsulin from S. griseus, expressed in E. coli (S. griseus); test: cryo-EM 2D class averages
# [2] = target: Family 2B encapsulin from S. griseus (Q54255), expressed in S. coelicolor (S. griseus); test: cryo-EM 2D class averages
percent of encapsulins with apparent cargo [1] [%],percent of particles with cargo [2] [%],Substance
34,–,"cargo protein of the Family 2B encapsulin from S. griseus, expressed in E. coli (natural protein)"
–,96,"cargo protein of the encapsulin (A0A2X2LWM5), expressed in S. coelicolor (natural protein)"
